The chains are these.
B1: NA08.1 (scFv)
chain: QVQLQQSGAELVKSGGSVKLSCTASGFNIKDSYMHWVRQGPEQGLEWIGHIDPENGDTEYAPKFQGKATFTTDTSSNTAYLQLSSLTSEDTAVYYCNEGTPTGPYYFDYWGQGTTVTVSSGGGGSGGGGSGGGGSENVLTQSPAIVSASPGEKVTITCSASSSVSAMHWFQQKPGTSPKLVIYSTSNLASGVPARFSGSGSGTSYSLTISRMEAEDAATYYCQQRSSYPLTFGAGTKLELKRAATPVSEKQLAEVVANTITPLMKAQSVPGMAVAVIYQGKPHYYTFGKADIAANKPVTPQTLFELGSISKTFTGVLGGDAIARGEISLDDAVTRYWPQLTGKQWQGIRMLDLATYTAGGLPLQVPDEVTDNASLLRFYQNWQPQWKPGTTRLYANASIGLFGALAVKPSGMPYEQAMTTRVLKPLKLDHTWINVPKAEEAHYAWGYRDGKAVRVSPGMLDAQAYGVKTNVQDMANWVMANMAPENVADASLKQGIALAQSRYWRIGSMYQGLGWEMLNWPVEANTVVETSFGNVALAPLPVAEVNPPAPPVKASWVHKTGSTGGFGSYVAFIPEKQIGIVMLANTSYPNPARVEAAYHILEALQ
B2: NA08.3 (scFv)
chain: QVQLQQSGAELVKSGGSVKLSCTASGFNIKDSYMHWVRQGPEQGLEWIGWIDPENGDTEYAPKFQGKATFTTDTSSNTAYLQLSSLTSEDTAVYYCNEGTPTGPYYFDYWGQGTTVTVSSGGGGSGGGGSGGGGSENVLTQSPAIVSASPGEKVTITCSASSSVSYMHWFQQKPGTSPKLVIYSTSNLADGVPARFSGSGSGTSYSLTISRMEAEDAATYYCQQRDSYPLTFGAGTKLELKRAATPVSEKQLAEVVANTITPLMKAQSVPGMAVAVIYQGKPHYYTFGKADIAANKPVTPQTLFELGSISKTFTGVLGGDAIARGEISLDDAVTRYWPQLTGKQWQGIRMLDLATYTAGGLPLQVPDEVTDNASLLRFYQNWQPQWKPGTTRLYANASIGLFGALAVKPSGMPYEQAMTTRVLKPLKLDHTWINVPKAEEAHYAWGYRDGKAVRVSPGMLDAQAYGVKTNVQDMANWVMANMAPENVADASLKQGIALAQSRYWRIGSMYQGLGWEMLNWPVEANTVVETSFGNVALAPLPVAEVNPPAPPVKASWVHKTGSTGGFGSYVAFIPEKQIGIVMLANTSYPNPARVEAAYHILEALQ
B3: NA08.9 (scFv)
chain: QVQLQQSGAELVKSGGSVKLSCTASGFNIKDSYMHWVRQGPEQGLEWIGWIDPENGDTEYAPKFQGKATFTTDTSSNTAYLQLSSLTSEDTAVYYCNEGTPTGPYYFDYWGQGTTVTVSSGGGGSGGGGSGGGGSENVLTQSPAIVSASPGEKVTITCSASSSVSAMHWFQQKPGTSPKLVIYSTSNLASGVPARFSGSGSGTSYSLTISRMEAEDAATYYCQQRSSYPLTFGAGTKLELKRAATPVSEKQLAEVVANTITPLMKAQSVPGMAVAVIYQGKPHYYTFGKADIAANKPVTPQTLFELGSISKTFTGVLGGDAIARGEISLDDAVTRYWPQLTGKQWQGIRMLDLATYTAGGLPLQVPDEVTDNASLLRFYQNWQPQWKPGTTRLYANASIGLFGALAVKPSGMPYEQAMTTRVLKPLKLDHTWINVPKAEEAHYAWGYRDGKAVRVSPGMLDAQAYGVKTNVQDMANWVMANMAPENVADASLKQGIALAQSRYWRIGSMYQGLGWEMLNWPVEANTVVETSFGNVALAPLPVAEVNPPAPPVKASWVHKTGSTGGFGSYVAFIPEKQIGIVMLANTSYPNPARVEAAYHILEALQ
B4: NA08.17 (scFv)
chain: QVQLQQSGAELVKSGGSVKLSCTASGFNIKDSYMHWVRQGPEQGLEWIGHIDPENGDTEYAPKFQGKATFTTDTSSNTAYLQLSSLTSEDTAVYYCNEGTPTGPYYFDYWGQGTTVTVSSGGGGSGGGGSGGGGSENVLTQSPAIVSASPGEKVTITCSASSSVSYMHWFQQKPGTSPKLVIYDTSNLASGVPARFSGSGSGTSYSLTISRMEAEDAATYYCQQRSSYPLTFGAGTKLELKRAATPVSEKQLAEVVANTITPLMKAQSVPGMAVAVIYQGKPHYYTFGKADIAANKPVTPQTLFELGSISKTFTGVLGGDAIARGEISLDDAVTRYWPQLTGKQWQGIRMLDLATYTAGGLPLQVPDEVTDNASLLRFYQNWQPQWKPGTTRLYANASIGLFGALAVKPSGMPYEQAMTTRVLKPLKLDHTWINVPKAEEAHYAWGYRDGKAVRVSPGMLDAQAYGVKTNVQDMANWVMANMAPENVADASLKQGIALAQSRYWRIGSMYQGLGWEMLNWPVEANTVVETSFGNVALAPLPVAEVNPPAPPVKASWVHKTGSTGGFGSYVAFIPEKQIGIVMLANTSYPNPARVEAAYHILEALQ
B5: NA08.13 (scFv)
chain: QVQLQQSGAELVKSGGSVKLSCTASGFNIKDSYMHWVRQGPEQGLEWIGWIDPENGDTEYAPKFHGKATFTTDTSSNTAYLQLSSLTSEDTAVYYCNEGTPTGPYYFDYWGQGTTVTVSSGGGGSGGGGSGGGGSENVLTQSPAIVSASPGEKVTITCSASSSVSYMHWFQQKPGTSPKLVIYDTSNLASGVPARFSGSGSGTSYSLTISRMEAEDAATYYCQQRDSYPLTFGAGTKLELKRAATPVSEKQLAEVVANTITPLMKAQSVPGMAVAVIYQGKPHYYTFGKADIAANKPVTPQTLFELGSISKTFTGVLGGDAIARGEISLDDAVTRYWPQLTGKQWQGIRMLDLATYTAGGLPLQVPDEVTDNASLLRFYQNWQPQWKPGTTRLYANASIGLFGALAVKPSGMPYEQAMTTRVLKPLKLDHTWINVPKAEEAHYAWGYRDGKAVRVSPGMLDAQAYGVKTNVQDMANWVMANMAPENVADASLKQGIALAQSRYWRIGSMYQGLGWEMLNWPVEANTVVETSFGNVALAPLPVAEVNPPAPPVKASWVHKTGSTGGFGSYVAFIPEKQIGIVMLANTSYPNPARVEAAYHILEALQ
B6: NA08.14 (scFv)
chain: QVQLQQSGAELVKSGGSVKLSCTASGFNIKDSYMHWVRQGPEQGLEWIGWIDPENGDTEYAPKFQGKATFTTDTSSNTAYLQLSSLTSEDTAVYYCNEGTDTGPYYFDYWGQGTTVTVSSGGGGSGGGGSGGGGSENVLTQSPAIVSASPGEKVTITCSASSSVSYMHWFQQKPGTSPKLVIYSTSNLASGVPARFSGSGSGTSYSLTISRMEAEDAATYYCQQRSSYPLTFGAGTKLELKRAATPVSEKQLAEVVANTITPLMKAQSVPGMAVAVIYQGKPHYYTFGKADIAANKPVTPQTLFELGSISKTFTGVLGGDAIARGEISLDDAVTRYWPQLTGKQWQGIRMLDLATYTAGGLPLQVPDEVTDNASLLRFYQNWQPQWKPGTTRLYANASIGLFGALAVKPSGMPYEQAMTTRVLKPLKLDHTWINVPKAEEAHYAWGYRDGKAVRVSPGMLDAQAYGVKTNVQDMANWVMANMAPENVADASLKQGIALAQSRYWRIGSMYQGLGWEMLNWPVEANTVVETSFGNVALAPLPVAEVNPPAPPVKASWVHKTGSTGGFGSYVAFIPEKQIGIVMLANTSYPNPARVEAAYHILEALQ
B7: NA08.4 (scFv)
chain: QVQLQQSGAELVKSGGSVKLSCTASGFNIKDSYMHWVRQGPEQGLEWIGWIDPENGDTEYAPKFQGKATFTTDTSSNTAYLQLSSLTSEDTAVYYCNEGDPTGPYYFDYWGQGTTVTVSSGGGGSGGGGSGGGGSENVLTQSPAIVSASPGEKVTITCSASSSVSYMHWFQQKPGTSPKLVIYSTSNLADGVPARFSGSGSGTSYSLTISRMEAEDAATYYCQQRSSYPLTFGAGTKLELKRAATPVSEKQLAEVVANTITPLMKAQSVPGMAVAVIYQGKPHYYTFGKADIAANKPVTPQTLFELGSISKTFTGVLGGDAIARGEISLDDAVTRYWPQLTGKQWQGIRMLDLATYTAGGLPLQVPDEVTDNASLLRFYQNWQPQWKPGTTRLYANASIGLFGALAVKPSGMPYEQAMTTRVLKPLKLDHTWINVPKAEEAHYAWGYRDGKAVRVSPGMLDAQAYGVKTNVQDMANWVMANMAPENVADASLKQGIALAQSRYWRIGSMYQGLGWEMLNWPVEANTVVETSFGNVALAPLPVAEVNPPAPPVKASWVHKTGSTGGFGSYVAFIPEKQIGIVMLANTSYPNPARVEAAYHILEALQ
B8: NA08.12 (scFv)
chain: QVQLQQSGAELVKSGGSVKLSCTASGFNIKDSYMHWVRQGPEQGLEWIGWIDPENGDTEYAPKFQGKATFTTDTSSNTAYLQLSSLTSEDTAVYYCNEGTPHGPYYFDYWGQGTTVTVSSGGGGSGGGGSGGGGSENVLTQSPAIVSASPGEKVTITCSASSSVSAMHWFQQKPGTSPKLVIYSTSNLASGVPARFSGSGSGTSYSLTISRMEAEDAATYYCQQRDSYPLTFGAGTKLELKRAATPVSEKQLAEVVANTITPLMKAQSVPGMAVAVIYQGKPHYYTFGKADIAANKPVTPQTLFELGSISKTFTGVLGGDAIARGEISLDDAVTRYWPQLTGKQWQGIRMLDLATYTAGGLPLQVPDEVTDNASLLRFYQNWQPQWKPGTTRLYANASIGLFGALAVKPSGMPYEQAMTTRVLKPLKLDHTWINVPKAEEAHYAWGYRDGKAVRVSPGMLDAQAYGVKTNVQDMANWVMANMAPENVADASLKQGIALAQSRYWRIGSMYQGLGWEMLNWPVEANTVVETSFGNVALAPLPVAEVNPPAPPVKASWVHKTGSTGGFGSYVAFIPEKQIGIVMLANTSYPNPARVEAAYHILEALQ

Here are results for eight molecules from patent publication US20110160440A1 (GENENCOR INTERNATIONAL, published 2011).

The assay addresses T1, CEA (carcinoembryonic antigen, Biodesign Intl., Saco, Me.) (UniProt P06731 35-685).
T1 construct: also called immobilized CEA
T1 sequence: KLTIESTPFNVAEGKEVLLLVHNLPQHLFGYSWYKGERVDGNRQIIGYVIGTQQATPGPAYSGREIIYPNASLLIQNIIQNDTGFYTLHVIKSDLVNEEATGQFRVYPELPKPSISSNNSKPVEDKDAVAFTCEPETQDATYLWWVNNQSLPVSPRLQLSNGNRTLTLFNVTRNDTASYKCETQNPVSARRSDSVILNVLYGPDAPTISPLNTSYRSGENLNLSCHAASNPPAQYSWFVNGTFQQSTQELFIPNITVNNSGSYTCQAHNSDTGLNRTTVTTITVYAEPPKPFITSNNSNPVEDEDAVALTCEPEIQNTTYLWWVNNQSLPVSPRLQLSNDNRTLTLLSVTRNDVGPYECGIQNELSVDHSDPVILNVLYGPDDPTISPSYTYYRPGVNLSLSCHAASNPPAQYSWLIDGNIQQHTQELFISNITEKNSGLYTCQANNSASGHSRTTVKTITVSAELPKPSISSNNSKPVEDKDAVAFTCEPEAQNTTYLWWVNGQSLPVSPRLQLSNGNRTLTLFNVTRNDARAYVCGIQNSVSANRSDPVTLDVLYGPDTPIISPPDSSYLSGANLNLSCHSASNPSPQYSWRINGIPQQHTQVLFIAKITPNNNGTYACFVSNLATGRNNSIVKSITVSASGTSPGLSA
Nature of the assay: CEA-coated plate at pH 6.5 and pH 7.4, bound BLA activity.
With B1, the binding result is “binds”.

On to B2, for which the binding result is on record as “binds”.

On to B3, for which the binding result is listed as “binds”.

As to B4, the binding result is recorded as “binds”.

Regarding B5, the binding result was “binds”.

On to B6, for which the binding result is “binds”.

Take B7: the binding result was “binds”.

For B8, the binding result is “binds”.
